± gives the uncertainty stated by the source.
Assay: self-splicing fitness, log relative to wild type (ln ratio); higher = more splicing; Tetrahymena group I intron in knt gene, E. coli kanamycin selection, DiMSum; sequences stand for … in CUCUCU…GGAGGGAAAAGUUAUCAGGCAUGCACCUGGUAGCUAGUCUUUAAACCAAUAGAUUGCAUCGGUUUAAAAGGCAAGACCGUCAAAUUGCGGGAAAGGGGUCAACAGCCGUUCAGUACCAAGUCUCAGGGGAAACUUUGAGAUGGCCUUGCAAAGGGUAUGGUAAUAAGCUGACGGACAUGGUCCUAACCACGCAGCCAAGUCCUAAGUCAACAGAUCUUCUGUUGAUAUGGAUGCAGUUCACAGACUAAAUGUCGGUCGGGGAAGAUGUAUUCUUCUCAUAAGAUAUAGUCGGACCUCUCCUUAAUGGGAGCUAGCGGAUGAAGUGAUGCAACACUGGAGCCGCUGGGAACUAAUUUGUAUGCGAAAGUAUAUUGAUUAGUUUUGGAGUACUCGUGGUCG
Summary of the method: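 DiMSum derived fitness as the error-weighted combination of fold changes across replicates, kanamycin versus no kanamycin, normalised to wild type. E. coli BL21(DE3) held the library, which randomised all eight P1ex-region intron nucleotides within the knt kanamycin-resistance gene on pET-22b(+). Six replicate transformations grew overnight at 37°C or 30°C on LB agar with or without 25 μg/mL kanamycin, also containing 100 μg/mL carbenicillin, 50 μM IPTG and 0.2% rhamnose, and pooled colonies were amplicon-sequenced on an Illumina HiSeq 2500.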

| Sequence | self-splicing fitness (ln) (30 °C) | self-splicing fitness (ln) (37 °C) |
| --- | --- | --- |
| GCUAAGCAAUAUUACGAGAG | -2.38 ± 0.12 | -1.27 ± 0.14 |
| AGAUAGCAAUAUUACGGUUA | -0.766 ± 0.11 | -0.936 ± 0.1 |
| CCCAAGCAAUAUUACGAGUA | -4.12 ± 0.18 | -2.5 ± 0.14 |
| CAUGAGCAAUAUUACGCCGG | -3.79 ± 0.22 | -2.14 ± 0.26 |
| ACUAAGCAAUAUUACGGAAG | -2.59 ± 0.13 | -1.55 ± 0.15 |
| GGUCAGCAAUAUUACGAAAG | -1.78 ± 0.084 | -1.22 ± 0.12 |
| GAACAGCAAUAUUACGAUCA | -0.605 ± 0.089 | -0.214 ± 0.11 |
| AGGGAGCAAUAUUACGGCGU | -2.04 ± 0.12 | -1.05 ± 0.11 |
| AAAUAGCAAUAUUACGAACA | -0.981 ± 0.14 | -0.0486 ± 0.12 |
| UGGUAGCAAUAUUACGGCGU | -1.44 ± 0.12 | -0.737 ± 0.12 |
| GUCAAGCAAUAUUACGAACC | -3.76 ± 0.42 |  |
| UGAAAGCAAUAUUACGGCUU | -1.62 ± 0.13 | -1.81 ± 0.2 |
| CAUAAGCAAUAUUACGGCAA | -2.52 ± 0.18 | -1.61 ± 0.18 |
| UACGAGCAAUAUUACGUUCA | -1.3 ± 0.11 | -0.719 ± 0.13 |
| GUGCAGCAAUAUUACGUAGU | -1.37 ± 0.083 | -0.784 ± 0.12 |
| CUGCAGCAAUAUUACGUCGU | -4.05 ± 0.25 | -3.44 ± 0.25 |
| AUGCAGCAAUAUUACGCAAU | -2.65 ± 0.12 | -1.98 ± 0.13 |
| GGAUAGCAAUAUUACGUACU | -0.979 ± 0.096 | 0.0901 ± 0.14 |
| CGUGAGCAAUAUUACGCAUG | -0.06 ± 0.18 | -1.13 ± 0.27 |
| CCAAAGCAAUAUUACGUGAG | -0.357 ± 0.049 | 0.0847 ± 0.073 |

| Sequence | self-splicing fitness (ln) (30 °C) | self-splicing fitness (ln) (37 °C) |
| --- | --- | --- |
| GGCCAGCAAUAUUACGCAGG |  | -2.78 ± 0.22 |
| GAGUAGCAAUAUUACGUCAC | -3.28 ± 0.24 |  |
| AUUAAGCAAUAUUACGUAUC | -3.93 ± 0.25 | -2.31 ± 0.24 |
| UUGAAGCAAUAUUACGUAAA | -1.42 ± 0.062 | -0.368 ± 0.081 |
| AGUAAGCAAUAUUACGAAGU | -1.75 ± 0.24 | -0.18 ± 0.27 |
| AUUGAGCAAUAUUACGGCCU | -3.53 ± 0.21 | -0.674 ± 0.11 |
| UUUCAGCAAUAUUACGCUAA | -1.25 ± 0.18 | -0.815 ± 0.17 |
| UCCGAGCAAUAUUACGUAUA | -3.79 ± 0.29 | -2.54 ± 0.24 |
| GUCUAGCAAUAUUACGACCG | -1.42 ± 0.4 | -2.17 ± 0.33 |
| GCCUAGCAAUAUUACGUACA | -2.54 ± 0.14 | -1.7 ± 0.13 |
| GCAUAGCAAUAUUACGUCAU | -3.5 ± 0.16 | -1.89 ± 0.098 |
| UGCAAGCAAUAUUACGACUU | -2.34 ± 0.1 | -0.599 ± 0.11 |
| UGGUAGCAAUAUUACGACAA | -0.344 ± 0.41 | -0.278 ± 0.31 |
| CCCUAGCAAUAUUACGAUGU | -3.58 ± 0.22 | -2.55 ± 0.18 |
| CGUAAGCAAUAUUACGGGGC | -3.43 ± 0.26 | -2.35 ± 0.23 |
| GUAAAGCAAUAUUACGGGAG | -3.68 ± 0.25 | -1.67 ± 0.14 |
| UUCAAGCAAUAUUACGAUGU | -2.21 ± 0.13 | -1.31 ± 0.16 |
| CACAAGCAAUAUUACGAUCG | -0.581 ± 0.069 | 0.875 ± 0.091 |
| CGUCAGCAAUAUUACGGGGU | -3.29 ± 0.11 | -2.33 ± 0.14 |

Reference: the supplement of paper PMC7877785
